Reference: the supplement of paper PMC9112550, “Optimization of the antimicrobial peptide Bac7 by deep mutational scanning” (BMC Biology, 2022)

System: Escherichia coli TOP10
Experiment: shrunken log2 fold change of peptide-encoding DNA abundance (4.5 h post-induction vs induction); higher = less antimicrobial activity (less host growth inhibition)
Details: time post-induction: 4.5 h; library: site-saturation at positions 5, 18, 19, 20
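Also: peptides expressed intracellularly from a pBAD plasmid library in pooled LB shake-flask culture, induced with 0.3% L-arabinose, DNA abundance read by NGS, three biological replicates, DESeq2 with apeglm shrinkage.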

Sequence | shrunken log2 fold change
RRIRFRPPRLPRPRPRPFLMPRP | -0.263
RRIRFRPPRLPRPRPRPFPHPRP | -0.142
RRIRFRPPRLPRPRPRPFPPPRP | -0.123
RRIRFRPPRLPRPRPRPFQHPRP | -0.209
RRIRFRPPRLPRPRPRPFQIPRP | -0.0567
RRIRFRPPRLPRPRPRPFSVPRP | -1.57
RRIRFRPPRLPRPRPRPFSYPRP | -0.777
RRIRFRPPRLPRPRPRPFTYPRP | -0.208
RRIRFRPPRLPRPRPRPFVMPRP | -1.05
RRIRFRPPRLPRPRPRPFWTPRP | -0.257
RRIRFRPPRLPRPRPRPFWWPRP | 0.398
RRIRFRPPRLPRPRPRPFYPPRP | -0.824
RRIRFRPPRLPRPRPRPGAKPRP | 0.118
RRIRFRPPRLPRPRPRPGALPRP | 0.0277
RRIRFRPPRLPRPRPRPGAQPRP | 0.247
RRIRFRPPRLPRPRPRPGARPRP | 0.355
RRIRFRPPRLPRPRPRPGCGPRP | 0.748
RRIRFRPPRLPRPRPRPGDCPRP | -0.0759
RRIRFRPPRLPRPRPRPGFCPRP | -0.179
RRIRFRPPRLPRPRPRPGFMPRP | -0.242
RRIRFRPPRLPRPRPRPGGFPRP | 0.42
RRIRFRPPRLPRPRPRPGGNPRP | 0.149
RRIRFRPPRLPRPRPRPGHRPRP | 0.0983
RRIRFRPPRLPRPRPRPGHSPRP | -0.0168
RRIRFRPPRLPRPRPRPGIFPRP | -0.218

Sequence | shrunken log2 fold change
RRIRFRPPRLPRPRPRPGKTPRP | -0.142
RRIRFRPPRLPRPRPRPGLFPRP | -0.143
RRIRFRPPRLPRPRPRPGMLPRP | -0.169
RRIRFRPPRLPRPRPRPGMVPRP | -0.0783
RRIRFRPPRLPRPRPRPGNMPRP | -0.198
RRIRFRPPRLPRPRPRPGPCPRP | 0.0242
RRIRFRPPRLPRPRPRPGPPPRP | 0.909
RRIRFRPPRLPRPRPRPGQNPRP | 0.0186
RRIRFRPPRLPRPRPRPGQSPRP | 0.0525
RRIRFRPPRLPRPRPRPGRIPRP | 0.0413
RRIRFRPPRLPRPRPRPGSRPRP | 0.191
RRIRFRPPRLPRPRPRPGSTPRP | -0.183
RRIRFRPPRLPRPRPRPGTCPRP | -0.161
RRIRFRPPRLPRPRPRPGTLPRP | -0.422
RRIRFRPPRLPRPRPRPGVVPRP | 0.231
RRIRFRPPRLPRPRPRPGWAPRP | 0.187
RRIRFRPPRLPRPRPRPGWMPRP | -0.0518
RRIRFRPPRLPRPRPRPGYAPRP | -0.0137
RRIRFRPPRLPRPRPRPGYCPRP | -0.321
RRIRFRPPRLPRPRPRPHAVPRP | -0.0464
RRIRFRPPRLPRPRPRPHCFPRP | -0.0267
RRIRFRPPRLPRPRPRPHELPRP | 0.0835
RRIRFRPPRLPRPRPRPHGGPRP | 0.0953
RRIRFRPPRLPRPRPRPHGYPRP | -0.707
RRIRFRPPRLPRPRPRPHHGPRP | 0.000407

Sequence | shrunken log2 fold change
RRIRFRPPRLPRPRPRPHIRPRP | -0.113
RRIRFRPPRLPRPRPRPHLKPRP | -0.437
RRIRFRPPRLPRPRPRPHLRPRP | -0.19
RRIRFRPPRLPRPRPRPHNEPRP | -0.626
RRIRFRPPRLPRPRPRPHNLPRP | -0.104
RRIRFRPPRLPRPRPRPHNMPRP | -0.896
RRIRFRPPRLPRPRPRPHNSPRP | -0.194
RRIRFRPPRLPRPRPRPHNTPRP | -0.796
RRIRFRPPRLPRPRPRPHPDPRP | -0.262
RRIRFRPPRLPRPRPRPHPTPRP | -0.133
RRIRFRPPRLPRPRPRPHPWPRP | -0.212
RRIRFRPPRLPRPRPRPHPYPRP | 0.0415
RRIRFRPPRLPRPRPRPHQLPRP | -0.374
RRIRFRPPRLPRPRPRPHSLPRP | -0.169
RRIRFRPPRLPRPRPRPHSWPRP | -0.0147
RRIRFRPPRLPRPRPRPHTCPRP | 0.00442
RRIRFRPPRLPRPRPRPHTDPRP | -0.736
RRIRFRPPRLPRPRPRPHTYPRP | -0.554
RRIRFRPPRLPRPRPRPHVTPRP | -0.211
RRIRFRPPRLPRPRPRPHWAPRP | -0.0371
RRIRFRPPRLPRPRPRPHWQPRP | -0.119
RRIRFRPPRLPRPRPRPHWVPRP | -0.523
RRIRFRPPRLPRPRPRPHYHPRP | -0.834
RRIRFRPPRLPRPRPRPIAGPRP | 0.0541
RRIRFRPPRLPRPRPRPIECPRP | -0.00174
